The text below walks through data of publication PMC4608766, “The Roles of Arabidopsis CDF2 in Transcriptional and Posttranscriptional Regulation of Primary MicroRNAs” (PLoS Genetics, 2015).

One assay has as its target T1, GST-CDF2 (Arabidopsis, UniProt Q93ZL5 1-457).
T1 construct: cycling DOF factor 2 (CDF2), Arabidopsis
T1 sequence (looked up): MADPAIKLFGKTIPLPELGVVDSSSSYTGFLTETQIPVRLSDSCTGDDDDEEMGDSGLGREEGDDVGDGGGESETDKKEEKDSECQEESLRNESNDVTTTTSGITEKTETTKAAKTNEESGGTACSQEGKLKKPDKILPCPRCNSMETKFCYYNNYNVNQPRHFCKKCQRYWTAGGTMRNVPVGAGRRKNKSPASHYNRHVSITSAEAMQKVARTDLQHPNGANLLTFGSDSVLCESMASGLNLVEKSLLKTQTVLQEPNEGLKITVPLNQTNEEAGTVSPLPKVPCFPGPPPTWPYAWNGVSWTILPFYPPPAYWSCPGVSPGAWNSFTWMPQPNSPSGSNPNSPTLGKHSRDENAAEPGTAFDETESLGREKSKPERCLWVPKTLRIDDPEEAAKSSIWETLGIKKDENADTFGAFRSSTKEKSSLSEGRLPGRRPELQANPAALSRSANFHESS
Put plainly: pull-down; GST pull-down: GST-CDF2 (or GST) on glutathione beads, MBP-DCL1-RBD added; 40 mM HEPES-KOH pH 7.5, 10 mM KCl, 3 mM MgCl2, 0.4 M sucrose, 1 mM EDTA, 1 mM DTT, 0.2% Triton X-100; 4 C, 1 h; immunoblot. Particulars: both partners purified. (In western blotting, separated proteins are transferred to a membrane and probed.)

The target of the next assay is T2, MBP-CDF2 (Arabidopsis, UniProt Q93ZL5 1-457).
T2 construct: cycling DOF factor 2 (CDF2), Arabidopsis; source: E. coli BL21 (DE3), purified (New England Biolabs protocol)
T2 sequence (looked up): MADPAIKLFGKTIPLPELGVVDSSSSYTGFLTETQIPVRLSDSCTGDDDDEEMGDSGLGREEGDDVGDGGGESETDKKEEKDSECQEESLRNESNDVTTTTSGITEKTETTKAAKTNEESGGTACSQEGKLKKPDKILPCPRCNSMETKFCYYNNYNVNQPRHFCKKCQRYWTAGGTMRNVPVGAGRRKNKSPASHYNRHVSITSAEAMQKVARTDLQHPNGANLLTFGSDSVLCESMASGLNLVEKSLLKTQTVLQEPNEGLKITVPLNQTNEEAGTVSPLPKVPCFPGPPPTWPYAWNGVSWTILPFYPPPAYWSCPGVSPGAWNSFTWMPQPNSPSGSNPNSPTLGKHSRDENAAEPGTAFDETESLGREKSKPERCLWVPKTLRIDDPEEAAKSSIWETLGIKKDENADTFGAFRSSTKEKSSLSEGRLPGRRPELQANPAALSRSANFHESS
Put plainly: pull-down; MBP pull-down: MBP-CDF2 (or MBP) on amylose resin, GST-DCL1-RBD added; 40 mM HEPES-KOH pH 7.5, 10 mM KCl, 3 mM MgCl2, 0.4 M sucrose, 1 mM EDTA, 1 mM DTT, 0.2% Triton X-100; 4 C, 1 h; immunoblot. Particulars: both partners purified.

B1: MBP-DCL1-RBD (domain or fragment, Arabidopsis, UniProt Q9SP32 1733-1909, looked up)
chain: HPVRELQERCQQQAEGLEYKASRSGNTATVEVFIDGVQVGVAQNPQKKMAQKLAARNALAALKEKEIAESKEKHINNGNAGEDQGENENGNKKNGHQPFTRQTLNDICLRKNWPMPSYRCVKEGGPAHAKRFTFGVRVNTSDRGWTDECIGEPMPSVKKAKDSAAVLLLELLNKTFS
notes: Dicer-like 1 (DCL1), Arabidopsis, the two C-terminal dsRBDs (DCL1-RBD, defined as aa 1733-1910); The limits are those printed where the name DCL1-RBD is defined; the methods of the pull-down give none; source: E. coli BL21 (DE3), purified (New England Biolabs protocol)
For B1, the binding result in the assay with GST-CDF2 was “binds”.

B2: GST-DCL1-RBD (domain or fragment, Arabidopsis, UniProt Q9SP32 1733-1909, looked up)
chain: HPVRELQERCQQQAEGLEYKASRSGNTATVEVFIDGVQVGVAQNPQKKMAQKLAARNALAALKEKEIAESKEKHINNGNAGEDQGENENGNKKNGHQPFTRQTLNDICLRKNWPMPSYRCVKEGGPAHAKRFTFGVRVNTSDRGWTDECIGEPMPSVKKAKDSAAVLLLELLNKTFS
notes: Dicer-like 1 (DCL1), Arabidopsis, the two C-terminal dsRBDs (DCL1-RBD, defined as aa 1733-1910); The limits are those printed where the name DCL1-RBD is defined; the methods of the pull-down give none
B2: the binding result in the assay with MBP-CDF2 is “binds”.
